B1: antibody 341 (antibody, V domains shown)
VH: QLQLQESGPGLVKPSETLSLTCTVSGGSISSSSYYWGWIRQPPGKGLEWIGSIYYSGSTYYNPSLKSRVTISVDTSKNQFSLKLSSVTAADTAVYYCARRPLRYFDWLTNFDYWGQGTLVTVSS
VL: EIVLTQSPATLSLSPGERATLSCRASQSVSSYLAWYQQKPGQAPRLLIYDASNRATGIPARFSGSGSGTDFTLTISSLEPEDFAVYYCQQRSNWPITFGQGTRLEIK
B2: antibody 409 (antibody, V domains shown)
VH: QVTLRESGPALVKPTQTLTLTCTFSGFSLSTSGMCVSWIRQPPGKALEWLALIDWDDDKYYSTSLKTRLTISKDTSKNQVVLTMTNMDPVDTATYYCARTTYYYVSGRRAEFDPWGQGTLVTVSS
VL: NFMLTQPHSVSESPGKTVTISCTGSSGSIASNYVQWYQQRPGSAPTTVIYEDNQRPSGVPDRFSGSIDSSSNSASLTISGLKTEDEADYYCQSYDSSNQGVFGGGTKLTVL
B3: antibody 385 (antibody, V domains shown)
VH: QVQLVESGGGVVQPGRSLRLSCAASGFTFSSYAIHWVRQAPGKGLEWVAVISYDGSNKYYADSVKGRFTISRDNSKNTLYLQMNSLRAEDTAVYYCARPRSGSYWGAFDIWGQGTMVTVSS
VL: QSVLTQPPSVSGAPGQRVTISCTGSSSNIGARYDVHWYQQLPGTAPKLLIYGNSNRPSGVPDRFSGSKSGTSASLAITGLQAEDEADYYCQSYDSSLRGVFGGGTKLTVL
B4: antibody 405 (antibody, V domains shown)
VH: not shown
VL: QSALTQPRSVSGSPGQSVTISCTGTSSDVGGYNYVSWYQQHPGKAPKLMIYDVSKRPSGVPDRFSGSKSGNTASLTISGLQAEDEADYYCCSYAGSYNVVFGGGTKLTVL
B5: antibody 395 (antibody, V domains shown)
VH: QVQLVQSGSELKKPGASVKLSCQASGYTFSNHAMNWVRQAPGQGLEWMGWINTNTGNPTYAQGFTGRFVFSLDTSVGTAYLHISSLKAEDTAFYYCARASARPGVATNLDFWGQGTLVVVSS
VL: DIQMTQSPSSLSASVGDRVTITCRTSQNIDNYLNWYQQKPGKAPNLLIYAASRLHSGVPSRFSGSGSGTDFTLIISSLQPEDLATYYCQQSYSNPLTFGPGTKVDIR
B6: antibody 502 (antibody, V domains shown)
VH: QVQLVQSGAEVKKPGASVKVSCKASGYTFTSYYMHWVRQAPGQGLEWMGIINPSGGSTSYAQKFQGRVTMTRDTATSTVYMELSSLRSEDTAVYYCARGGGQISMIIVVMDDAFDIWGQGTMVTVSS
VL: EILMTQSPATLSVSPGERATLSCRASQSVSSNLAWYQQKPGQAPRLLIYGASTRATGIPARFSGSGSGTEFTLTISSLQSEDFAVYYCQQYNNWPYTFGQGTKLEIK
B7: antibody 482 (antibody, V domains shown)
VH: EVQLVESGGGLVQPGGSLRLSCAASGFTFSSYWMTWVRQAPGKGLEWVANIKQDGSEKYYVDSVKGRFTISRDNAKNSLYLQMNSLRAEDTAVYYCARGVGSWYLGFDYWGQGTLVTVSS
VL: NFMLTQPHSVSESPGKTVTISCTGSSGSIASNYVQWYQQRPGSAPTTVIYEDNQRPSGVPDRFSGSIDSSSNSASLTISGLKTEDEADYYCQSYDGSSYVFGTGTKVTVL
B8: antibody 508 (antibody, V domains shown)
VH: EVQLVQSGAEVKKPGATVKISCKVSGYTFTDYYMHWVQQAPGKGLEWMGLVDPEDGETIYAEKFQGRVTITADTSTDTAYMELSSLRSEDTAVYYCAVENMITFGGVIVKRGAFDIWGQGTMVTVSS
VL: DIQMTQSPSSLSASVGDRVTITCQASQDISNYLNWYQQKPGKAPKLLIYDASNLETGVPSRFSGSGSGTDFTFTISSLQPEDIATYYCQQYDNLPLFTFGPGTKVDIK
B9: antibody 465 (antibody, V domains shown)
VH: QITLKESGPTLVKPTQTLTLTCTFSGFSLSTSGVGVGWIRQPPGKALEWLALIYWDDDKHYSPSLKSRLTITKDTSKNQVVLTMTNMDPVDTATYYCAHMYYDILSGYYYGMDVWGQGTTVTVSS
VL: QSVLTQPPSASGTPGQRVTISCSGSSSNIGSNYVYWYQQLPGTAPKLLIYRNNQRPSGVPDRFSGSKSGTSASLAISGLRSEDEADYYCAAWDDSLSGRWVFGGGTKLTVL
B10: antibody 506 (antibody, V domains shown)
VH: QITLKESGPTLVKPTQTLTLTCTFSGFSLSTSGVGVGWIRQPPGKALEWLALIYWDDDKRYSPSLKSRLTITKDTSKNQVVLTMTNMDPVDTATYYCAHHSLSSIFDYWGQGTLVTVSS
VL: QSALTQPASVSGSPGQSITISCTGTSSDVGDYNYVSWYQQHPGKAPKLMIYEVSNRPSGVSNRFSGSKSGNTASLTISGLQAEDEADYYCSSYTSSSTVFGGGTKLTVLG
B11: antibody 467 (antibody, V domains shown)
VH: QVQLVQSGAEVKKPGASVKVSCKASGYTFISYGISWVRQAPGQGLEWMGWISAYNGNTNYAQKLQGRVTMTTDTSTSTAYMELRSLRSDDTAVYYCARGLWPGYYYGSGSYSAFHIWGQGTMVTVSS
VL: QSALTQPPSASGSPGQSVSISCTGTSSDVGGYNYVSWYQQHPGKAPKLMIYEVSKRPSGVPDRFSGSKSGNTASLTVSGLQAEDEADYYCSSYAGSNKVFGGGTKLTVL
B12: antibody 501 (antibody, V domains shown)
VH: QVQLVQSGAEVKKPGASVKVSCKASGYTFTSYYVHWVRQAPGQSLEWMGVISPSTGSTTYAQNFQGRVTMTRDTSTTTVYMELSSLRSEDTAVYYCARDDYYDSTRYFDLWGRGTLVTVSS
VL: QSALTQPASVSGSPGQSISFSCTGTSSDIGAYNYVSWYQQHPGRAPKLMIYDVGNRPSGVSNRFSGSKSGNTASLTISGLQAEDEADYYCSSYTSSSTQVFGTGTKVTVL
B13: antibody 380 (antibody, V domains shown)
VH: QVQLVESGGGVVQPGRSLRLSCAASGFTLKNYGMHWVRQAPGKGLEWVIVLSFDGSDEYKADSVRGRFTVSRDNSKNTLFLQMNSLRPDDTAVYYCAREQPTMIEGGRGPFDIWGQGTMVTVSS
VL: EVVMTQSPATLSVSPGDRATLSCRASQGVNSNLAWYQQKPGQAPRLLIYAASTRATGIPARFSASGSGTHFTLTISSLQSEDFAVYYCLQYNNWPPWTFGQGTKLEIK
B14: antibody 351 (antibody, V domains shown)
VH: HVQLVESGGGVVQPGRSLRLSCAASGFISRNYGMEWVRQAPGQGLEWVAGIWYDGSKKYYADSVKGRFTISRDTSKNTLFLQMDSLRAEDTAVFYCATATKTFCGGDCPPGGMDVWGQGTTVTVST
VL: SYVLTQPPSVSVAPGKTAWITCVGNNIESESVHWYQQRPGQAPVLVIYYDSDRPSGIPERFFGSNSGNTATLTISRVEAGDEADYYCQVWDSNSDLMVFGGGTKLTVL
B15: antibody 343 (antibody, V domains shown)
VH: QVQLVESGGDVVQPGTSLRLSCAASGFTFNNYGFHWVRQAPGKGLEWVALISSDGASTHYADSVKGRFTISRDSSVNTLYLQMNSLSLEDTAVYYCATGHCGTTCYYFDYWGQGTLVSVSS
VL: DIQVTQSPSYLSASVGDRVTITCRASQTISTFLQWYQQKVGKAPKLLIYAASTLQSGVPSRFSGSGSGTDFSLTISSLQPEDFATYYCQQSYSAPLSFGGGTKVEIK
B16: antibody 332 (antibody, V domains shown)
VH: QVTLRESGPALVKPTQTLTLTCTFSGFSLSTSGMCVSWIRQPPGKALEWLALIDWDDDKYYSTSLKTRLTISKDTSKNQVVLTMTNMDPVDTATYYCARIHDDILTGYHYVDYWGQGTLVTVSS
VL: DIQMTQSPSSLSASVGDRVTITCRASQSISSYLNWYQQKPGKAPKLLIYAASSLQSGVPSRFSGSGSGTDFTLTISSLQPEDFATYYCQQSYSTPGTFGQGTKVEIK
B17: antibody 333 (antibody, V domains shown)
VH: QVHLVESGGGVVLPGRSLRLSCSASQFIFSNYDMHWVRQSPGMGLEWVAGISSDGSDKYYIDSVRGRFTISRDNAKNTLFLQMNSLTTEDTAVYSCAKGGGKFGQYWGRGTLVTVSS
VL: AIQMTQSPSSLSASVGDRVTITCRASQVIRNDLAWFQQKPGEAPNLLVYSASNLQSGVPSRFSGSGSGTDFTLTISSLQPEDFATYYCLQDYSYPYTFGQGTKLDMK
B18: antibody 443 (antibody, V domains shown)
VH: QMRLEESGPGLVKPSETLSLTCTVAGGSITSSDYFWGWLRQSPGKGLEWIASTYHGGSIQYHPALKSRVTISVDASKNQISLRLSSVTAADTAVYYCARDRGDDGPMGTYYFDHWGQGALVTVSS
VL: QSVLTQPPSVSGAPGQSVTISCAGSSSNIGAGHDVHWYQQIPGTAPKLLICGNTNRPSGVPERFSGSRSGTSASLAITGLQAEDEAVYYCQSYDPSHVFFGTGTKLTVL
B19: antibody 434 (antibody, V domains shown)
VH: QVQLVQSGAEVKKPGASVQVSCKASGYTFSDYYIFWVRQAPGQGLEWMGCINPKSGGAIYAQRFQGRVTMTRDTSFNTAYMEMNRLGSDDTAVYYCVTRGPPDIAASGFAWHLDVWGQGTTVTVSS
VL: DIVMTQSPLSLPVTPGEPASISCRSSQSLLSSNGYNYLEWYLQKPGQSPQLLMYLGSNRASGVPDRFSGSGSGTDFTLKINRVEAEDVGVYYCMQALQTPLTFGGGTKVEIK

Biological target: T1, SARS-CoV-2 full length spike protein, V483A mutant, expressed on the surface of CHO cells (SARS-CoV-2, UniProt P0DTC2 14-1273)
Assay: not given

Q: How did the “median fluorescence intensity, fold over isotype control” value (“median fluorescence intensity, fold” below) turn out when B1 was run?
A: 1.01 fold over isotype

Biological target: T2, SARS-CoV-2 full length spike protein, V483A mutant, expressed on CHO cells (SARS-CoV-2, UniProt P0DTC2 14-1273)
Assay: not given

Q: Which “median fluorescence fold over isotype control” value (“median fluorescence fold” for short) does the source give for B2 here?
A: 9.21 fold over isotype

Q: How did the “median fluorescence fold” value turn out when B3 was run?
A: 8.16 fold over isotype

Q: B4 was tested. Which “median fluorescence fold” value did it give?
A: 7.51 fold over isotype

Q: For B5, which “median fluorescence fold” value is on record?
A: 8.92 fold over isotype

Biological target: SARS-CoV-2 full length spike protein, V367F mutant, expressed on CHO cells (SARS-CoV-2, UniProt P0DTC2 14-1273)
Assay: not given

Q: With B6 as the binder, how does the “median fluorescence intensity, fold” value read?
A: 51.8 fold over isotype

Q: B7 was tested. Which “median fluorescence intensity, fold” value did it give?
A: 2.89 fold over isotype

Q: B8 was tested. Which “median fluorescence intensity, fold” value did it give?
A: 2.71 fold over isotype

Q: How did the “median fluorescence intensity, fold” value turn out when B9 was run?
A: 37.3 fold over isotype

Q: B10 was tested. Which “median fluorescence intensity, fold” value did it give?
A: 42.3 fold over isotype

Q: For B11, which “median fluorescence intensity, fold” value is on record?
A: 30.6 fold over isotype

Q: How did the “median fluorescence intensity, fold” value turn out when B12 was run?
A: 30 fold over isotype

Biological target: SARS-CoV-2 full length spike protein, D614G mutant, expressed on CHO cells (SARS-CoV-2, UniProt P0DTC2 14-1273)
Assay: not given

Q: With B6 as the binder, how does the “median fluorescence intensity, fold” value read?
A: 77.3 fold over isotype

Q: Which “median fluorescence intensity, fold” value does the source give for B7 here?
A: 14.3 fold over isotype

Q: With B8 as the binder, how does the “median fluorescence intensity, fold” value read?
A: 3.99 fold over isotype

Q: With B9 as the binder, how does the “median fluorescence intensity, fold” value read?
A: 68.3 fold over isotype

Q: Which “median fluorescence intensity, fold” value does the source give for B10 here?
A: 69.5 fold over isotype

Q: For B11, which “median fluorescence intensity, fold” value is on record?
A: 7.54 fold over isotype

Q: B12 was tested. Which “median fluorescence intensity, fold” value did it give?
A: 46.1 fold over isotype

Biological target: T2, SARS-CoV-2 full length spike protein, …
Assay: flow cytometry on CHO cells expressing spike V483A

Q: Does B13 bind?
A: no binding

Biological target: T1, SARS-CoV-2 full length spike protein, …
Assay: flow cytometry, CHO cells expressing full-length spike V483A

Q: Does B14 bind?
A: no binding

Q: Does B1 bind?
A: no binding

Q: Does B15 bind?
A: no binding

Q: Does B16 bind?
A: no binding

Q: Does B17 bind?
A: no binding

Biological target: T3, SARS-CoV-2 full length spike protein, V483A mutant (SARS-CoV-2, UniProt P0DTC2 14-1273)
T3 construct: also called SARS-CoV-2 V483A mutant
Assay: as above

Q: Does B18 bind?
A: no binding

Q: Does B19 bind?
A: no binding

Source: US20210292393A1 (published 2021)
